In the nanobody polyreactivity screen of Harvey et al. (2022):

Assay: yeast display, Sf9 membrane polyspecificity reagent, FACS + sequencing; frameworks hold sequencing errors
Summary of the method: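 After 36–48 hours of galactose induction, yeast (Saccharomyces cerevisiae BJ5465) displaying a synthetic nanobody library were stained at 4 °C for 1 hour with 10% biotinylated, detergent-solubilized Sf9 membrane reagent. Streptavidin microbeads enriched the stained cells before FACS sorting into low and high (top ~1%) gates on anti-HA and streptavidin fluorescence. Each clone's polyreactivity label reflects its gate of origin.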

Sequence	polyreactivity (PSR sort gate)
QVQLVESGGGLVQAGGSLRLSCAASGRIFRYNAMGWYRQAPGKERELVAAITWDGGSTYYADSVKGRFTISRDNAKNTVYLQMNSLKPEDTAVYYCNAVTRSYYSYYYWGQGTQVTVSS	high polyreactivity
QVQLVESGGGLVQAGGSLRLSCAASGRTSGVYAMGWYRQAPGKERELVAAITSDSTYYADSVKGRFTISRDNAKNTVYLQMNSLKPEDTAVYYCAADSLARRYDYWGQGTQVTVSS	low polyreactivity
QVQLVESGGGLVQAGGSLRLSCAASGRIFLGYAMGWYRQAPGKERELVAAISRSGGRTYYADSVKGRFTISRDNAKNTVYLQMNRLKPEDTAVYYCAARALYPLGYDYWGQGTQVTVSS	high polyreactivity
QVQLVESGGGLVQAGGSLRLSCAASGFIFRVYTMVWYRQAPGKERELVAAISYRGGRTYYADSVKGRFTISRDNAKNTVFLQMNSLKPEDTAVYYCAADRVNREFDYWGQGTQVTVSS	high polyreactivity
QVQLVESGGGLVQAGGSLRLSCAASGSIFRWYAMGWYRQAPGKERELVAAISKSGGTTYYADSVKGRFTISRDNAKNTVYLQMNSLKPEDTAVYYCAARRYPYGGYGYRYDYWGQGTQVTVSS	high polyreactivity
QVQLVESGGGLVQAGGSLRLSCAASGITFRANAKGWYRQAPGKERELVAAISARGGSTYYADSVKGRFTISRDNAKNTVYLQMNSLNPEDTAVYYCAKELSQGMRYDYWGQGTQVTVSS	high polyreactivity
QVQLVESGGGLVQAGGSLRLSCAASGRTLPFYAMGWYRPAPGKERELVAAISRSGARTYYADSVKGRFTISRDHAKNTVYLQMNSLKPEDTAVYYFAAGFMWYIGNSKFDYWGQGTQVTVSS	high polyreactivity
QVQLVESGGGLVQAGGSLRLSCAASGSTFRRNAMGWYRQAPGKERELLAAISRRGGSTYYADSVKGRFTISRDNAKNTVYLQMNSLKPEDTAVYYCASAVTTYSQGQGVYSWGQGTQVTVSS	high polyreactivity
QVQLQESGGSLVQAGGILRLSCAACGNIFPSAVMGWYRQALGKEREFVATINSGSYTYYADSVKVRFTISRDNAKNTVYLQMNSLKLDDSAVYYCAAYFKLPAWHTYWGQGTQVTVSS	low polyreactivity
QVQLVESGGGLVQAGGSLRLSCAASGSIFGVYAMGWYRQAPGKERELVAAIDSGGDTYYADSVKGRFTISRDNAKNTVYLQMNSLKPEDTAVYYCNAPYNRATYNYWGQGTQVTVSS	high polyreactivity
QVQLVESGGGLVQAGGSLRLSCAASGLIFTYYAMGWYRQAPGKERELVAAITSGGTTNYADSVKGRFTISRDNAKNTVYLQMNSLKPEDTAVYYCAADYDTGSERYEYWGQGTQVTVSS	low polyreactivity
QVQLVESGGGLVQAGGSLRLSCAASGRTFTRYTKGWYRQAPRKERDLVAASTRGGSTYADSVKGRFTNSRDNAKNTVYLEMNSLKPEDTAVYYCAAYWGFFPWRAYPYDYWGQGTQVTVSS	high polyreactivity
QVQLVESGGGLVQAGGSLRLSCAASGSTFVTYAMGWYRQAPGKERELVAAIDSGGNTNYADSVKGRFTISRDNAKNTVYLQMNSLKPEDTAVYYCAVRPYELHRLDDQPGGDDYWGQGTQVTVSS	low polyreactivity
QVQLVESGGGLVQAGGSLRLSCAASGITFTDYAMGWYRQAPGKERELVAAISGIGSTTYYADSVKGRFTISRDNAKNTVYLQMNSLKPEDTAVYYCNALLAYTYWYDYWGQGTQLTVSS	high polyreactivity
QVQLVESGGGLVQAGGSLRLSCAASGRTINRYDMGWYRQAPGKERELVAAISTSGGTTYYADSVKGRFTISRDNAKNTVYLQMNSLKPEDTAVYYCNARALAYWGQGTKVTVSS	high polyreactivity
QVQLVESGGGLVQAGGSLRLSCAASGSTFSYYTMGWYRQAPGKERELVAAITRRGDSTYADSVKGRFTISRDNAKTTVYLQMNSLKPEDTAVYYCAADASVGVSGMDYWGQGSQVTVSS	low polyreactivity
QVQLVESGGGLVQAGGSLRLSCAASGFTFPYYAMGWYRQAPGKERELVAAISYSGSTTYYADSVKGRFTISRDNAKNTVYLQMNSLKPEDTAVYYCAKAGYYYFQQWQVDYWGQGTQVTVSS	high polyreactivity
QVKLVDSGGGLVQAGGSLRLTCAASGRTLGRNGMGWYRQDPGKERELVAAISLSGGRSYADSVKGRFTISRDNAKNSVYLQMNSLKPEDTAVYYCAKVGYSRRYAYNVYYWGQGTQLTVSS	low polyreactivity
QVQLVESGGGLVQAGGSLRLSCAASGRIFARYAMGWYRQAPWKERELVADITTGGSTDYADSVKGRFTISRDNAKNTVYLQMNSLKPEDTAVYYCAKDHHPPGKGQSVSLGYDYWGQGTQVTVSS	low polyreactivity
QVQLVESGGGLVQAGGSLRLSCAASGSIFHPYGMGWYRQAPGKERELVAAITSSGGDKYYADSVKGRFTISRDNAKNTVYLQMNSLKPEDTAVYYCAATGLPGYYAYDYWGQGTQVTVSS	low polyreactivity
QVQLVESGGGLVQAGGSLRLSCAASGSTFSKYAMGWYRQAPGKERELVAAISRSGGNTYYADSVKGRFTISRDNAKNTVYLQMNSLKPEDTAVYYCATTLYSYSTGRYRLDYWGQGTQVTVSS	high polyreactivity
QVQLVVSGGGLVQAGGSLRLSCAASGRFFGYYARGWYRQAPGEERELVAAITRGGSTNYADSVKGRFTISRDNAKNTVYLQMNSLKPEDTAVYYCNARRYRPGTASYDYWGQGTQVTVSS	high polyreactivity

Sequence	polyreactivity (PSR sort gate)
QVQLVESGGGLVQAGGSLRLSCAASGITFFLYGMGWYRQAPGKERELVAAISWSCASTYADSVKGRFTISRDNAKNTVYLQMNSLKPEDTAVYYCARDDNPIYSGVTYDYWGQGTQVTVSS	low polyreactivity
QVQLVESGGGLVQAGGSLRLICAASGSIFIRNAMGWYRQAPGKERELVAAITSRGGSTYYADSVKGRFTISRDNAKNTVFLQMNSLKPEDTAVYYCARRYYGLYDYWGQGTQVTVSS	low polyreactivity
QVQLVESGGGLVQAGGSLRLSCAASGRTFSGYAMVWYRQAPGKERELVAAISSGGGSTYYADSVKGRFTISRDNAKNTVYLQMNSLKPEDTAVYYCAADGYPGDYDYWGQGTQVTVSS	low polyreactivity
QVQLVESGGGLVQAGGSLRLICAASGRIFTAYVMGWYRQAPGKERQLVAAITEGGGNTYYADSVKGRFTISRDNAKNTVYLQMNSLKPEDTAVYYCAARYLVNGRKRLYYWGQGTQVTVSS	high polyreactivity
QVQLVESGGGLVQAGGSLRLSCAASGSIFPPYAMGWYRQAPGKERELVATITIRGGSTYYADSVKGRFTISRDNAKNTVYLEMNSLKPDDTAVYYCAADYTKYYRSYYYWGQGTQVTVSS	high polyreactivity
QVQLVESGGGLGQAGGSLRLSCAASGFTFGNYAMGWYRQAPGKERELVAVISYSTGSTNYADSVKGRFTISRDNAKNTVYLQMNSLKPEDTAVYYCAKRYRSYYQGYGYWGQGTQVTVSS	high polyreactivity
QVQLVESGGGLVQAGGSLRLSCAASGFIFGGYAMGWYRQAPGKERELVAAITRGGSTDYADSVKGRFTISRDNAKNTVYLQMNSLKPEDTAVYYCAKKTPGWGKFDYWGQGTQVTVSS	low polyreactivity
QVQLVESGGGLVQAGGSLRLSCAASGLTFFGNAMGWYRQAPGKERELVATISSGGGTSYADSVKGRFTISRDNAKNTVYLQMNSLKPEDTAVYFCAAEIVEEFDYWGQGTQVTVSS	low polyreactivity
QVQLVESGGGLVQAGASLRLSCAASGYIYPKYGMGWYIQAPGKERELVAAITGSGGSTYYADSVMGRITISRDNAKNTVYLHMNSLKPEDTAVYYCAKRSWIEYDYWGQGTQVTVSS	low polyreactivity
QVQLQESGRGLVQAGGSLLSCAASGTISWVDEMGWYRHAPGNERELVAGIAGGGNTNYADSLKGRFTISRDNAKNTVYLHMNSQDTAVYYCAVVVFGRGTHIYWCQGTQVTVSS	high polyreactivity
QVQLVESGGGLVQAGGSLRLSCAASGSIFYPYAMGWYRPAPGKERELVAGITGGGRTYYADSVKGRFTISRDNAKNTVYLQMNSLKPEDTAVFYCAAVDFVSYYIPFHYEYYWGQGTQVTVSS	low polyreactivity
QVQLVESGGGLVQAGGSLRLSCAASGRIFAHYAMGWYRPAPGKERELVAAISSGGSTYYADSVKGRFTISRDNAKNTVYLQMKSLKPEDTAVYYCNKRPVRRKYDYWGQGTQVTVSS	low polyreactivity
QVQLVESGGGLVQAGGSLRLSCAASGFTFEGYAMGGYRQAPGKERELVAAINGSGGSTYYADSVKGRFTISRDYAKNTVYLQMNSLKPEDTAVYYCAKSGYGNRGFDYWGQGTQVTVSS	low polyreactivity
QVQLVESGGGLVQAGGSLRLSCAASGRTFKTYAMGWYRQAPGKERELVAAITRRGGSTYYADSVKGRFTISSDNAKNTVYLQMNRLKPEDTAVYYCAAGFYFLSLFSGRMDYWGQGTQVTVSS	high polyreactivity
QVQLVESGGGLVQAGGSLRLSSAASGNIFKSYTMGWYRQAPGKERELVAAITSGGRTNYGDSVKGRFTISRDNAKNTVYLQMNSLKPEDTAVYYCNAYKVFWVSIRYKFDYWGQGTQVTVSS	high polyreactivity
QVQLVESGGGLVQAGGSLRLSCAASGSIFADNTMGWSRQSPGKERELVAAITSSGRTYYADSVKGRFTISRDNAKNTVYLQMNSLKPEDTAVYYCAAVIYFHDYSPYYYWGQGTQVTVSS	high polyreactivity
QVQLEESGRGLVQAGVSLRLSSAASGNTFVTNTMVWYRQAPGKERELVAAIDSGGDSYYADSVKGRFTISRDNAKNTVYFQMNSLKPEDTAVYYCAAVGDRNYFSNRRYEYWGQGTQVTVSS	low polyreactivity
QVQLVESGGGLVQAGGSLRLSCAASGRTFTFNAMGWYRQAPGKERELVARIDWRGITYADSVKGRFTISRDNAKNTVYLQMNSLKPEDTAVYYCAAVWLHIRGFFFQYDYWGQGTQVTVSS	low polyreactivity
QVQLVESGGGLVQAGGSLRLSCAASGSIFWWNAMGGYRQAPGKERELVAAINWSTGRTYYADSVKGRFTISRDNAKNTVYLQMNSLKPEDTAVYYCAASFVGALGYDYWGQGTQVTVSS	low polyreactivity
QVQLVESGGGLVQAGCSLRLSCAASGRIFYRNAMGWYRQAPGKERELVAGITRGGSTNYADSVKGRFTISRDNAKNNVYLQLNSLKPEDTAVYYCAKAIPAKFYSEAGYDYWGQGTQVTVSS	low polyreactivity
QVQLVESGGGLVQAGGSLRLSCAASGRIIYGYTMGWYRQAPGKERELVAVISRGGSTNYADSVKGRFSISRDNAKYTVYLQMNSLKPEDTAVYYCAATTKLPRGNYWYYYWGQGTQVTVSS	high polyreactivity
